Source: patent US20250101098A1 (R P SCHERER TECHNOLOGIES, published 2025)
Substitutions are numbered along the chain they refer to. Names and notes keep the numbering of the source.

T1: cynomolgus monkey nectin-4 protein expressed on the surface of HEK 293 cells (cynomolgus monkey, UniProt A0A2K5WES1 32-510)
T1 construct: whole, on cells
T1 sequence: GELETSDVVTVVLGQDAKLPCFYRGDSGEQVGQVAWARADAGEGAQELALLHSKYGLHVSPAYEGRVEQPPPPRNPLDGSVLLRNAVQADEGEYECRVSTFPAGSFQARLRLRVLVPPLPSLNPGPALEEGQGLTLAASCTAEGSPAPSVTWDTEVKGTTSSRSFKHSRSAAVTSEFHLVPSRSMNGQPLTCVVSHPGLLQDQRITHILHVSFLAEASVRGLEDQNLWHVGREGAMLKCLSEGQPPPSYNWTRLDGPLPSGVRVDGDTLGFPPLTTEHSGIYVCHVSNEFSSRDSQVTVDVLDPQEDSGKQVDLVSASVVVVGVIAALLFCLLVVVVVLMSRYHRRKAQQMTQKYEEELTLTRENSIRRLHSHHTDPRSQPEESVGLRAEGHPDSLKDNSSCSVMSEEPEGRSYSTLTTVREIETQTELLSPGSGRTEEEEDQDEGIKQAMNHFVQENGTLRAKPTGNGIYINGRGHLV

T2: human nectin-4 protein expressed on the surface of cells (human, UniProt Q96NY8 32-510)
T2 construct: also called HEK 293 cells overexpressing human nectin-4; HekNectin4
T2 sequence: T1 sequence with A39V, V230I, T437A

T3: mouse nectin-4 protein expressed on the surface of HEK 293 cells (mouse, UniProt Q8R007 31-508)
T3 construct: whole, on cells
T3 sequence (looked up): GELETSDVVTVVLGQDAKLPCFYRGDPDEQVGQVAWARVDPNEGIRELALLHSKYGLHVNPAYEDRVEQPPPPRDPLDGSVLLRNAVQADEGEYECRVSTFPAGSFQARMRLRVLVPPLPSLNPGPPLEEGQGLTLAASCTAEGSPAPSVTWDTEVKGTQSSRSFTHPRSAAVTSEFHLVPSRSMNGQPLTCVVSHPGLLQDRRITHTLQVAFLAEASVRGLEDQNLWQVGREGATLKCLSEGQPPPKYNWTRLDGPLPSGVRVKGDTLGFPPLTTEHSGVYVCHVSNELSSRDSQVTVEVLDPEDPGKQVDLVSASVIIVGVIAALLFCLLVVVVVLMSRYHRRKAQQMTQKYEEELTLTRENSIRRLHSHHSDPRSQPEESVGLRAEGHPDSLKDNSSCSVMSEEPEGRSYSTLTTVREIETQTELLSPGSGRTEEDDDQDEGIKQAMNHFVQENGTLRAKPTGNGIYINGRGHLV

T4: rat nectin-4 protein expressed on the surface of HEK 293 cells (rat, UniProt D3ZET1 31-509)
T4 construct: whole, on cells
T4 sequence: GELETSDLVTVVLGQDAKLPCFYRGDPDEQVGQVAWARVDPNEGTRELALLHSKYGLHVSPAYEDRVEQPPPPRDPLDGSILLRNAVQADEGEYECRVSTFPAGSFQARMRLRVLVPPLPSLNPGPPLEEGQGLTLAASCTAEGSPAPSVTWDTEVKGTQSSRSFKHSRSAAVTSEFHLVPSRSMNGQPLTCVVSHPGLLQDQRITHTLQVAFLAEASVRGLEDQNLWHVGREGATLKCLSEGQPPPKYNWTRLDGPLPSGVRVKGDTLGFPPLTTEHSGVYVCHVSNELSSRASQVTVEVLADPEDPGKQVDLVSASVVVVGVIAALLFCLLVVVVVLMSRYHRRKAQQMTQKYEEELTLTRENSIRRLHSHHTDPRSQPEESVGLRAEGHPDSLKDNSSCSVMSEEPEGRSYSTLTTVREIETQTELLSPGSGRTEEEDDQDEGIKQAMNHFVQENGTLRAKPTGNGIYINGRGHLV

T5: recombinant human Nectin-4-His protein (human, UniProt Q96NY8 32-349)
T5 construct: Rescreening antigen and bought ELISA antigen are treated as one molecule; also called human Nectin-4-His tagged; Ag1; not shown: His tag
T5 sequence: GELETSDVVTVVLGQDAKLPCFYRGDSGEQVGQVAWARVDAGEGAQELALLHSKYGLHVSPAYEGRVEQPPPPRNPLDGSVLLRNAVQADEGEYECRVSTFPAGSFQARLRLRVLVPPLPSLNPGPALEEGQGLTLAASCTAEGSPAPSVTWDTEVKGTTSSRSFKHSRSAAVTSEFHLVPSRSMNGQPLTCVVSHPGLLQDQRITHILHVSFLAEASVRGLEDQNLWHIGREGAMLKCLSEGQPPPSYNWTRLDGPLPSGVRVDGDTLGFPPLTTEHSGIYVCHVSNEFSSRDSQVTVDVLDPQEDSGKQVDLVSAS

B1: Nectin-4 Hybridoma 6C8H/6C8L (recombinant chimeric antibody) (antibody, V domains shown)
VH: QVQLKQSGPGLVQPSQSLSITCTVSGFSLSTYGVHWVRQSPGKGLEWLGVIWSGGSTDYNAAFISRLTISKDNSKSQIFFKMNSLQADDTAIYYCARMMSWYFDVWGTGTTVTVSS
VL: DIVMTQSQKFMSTSVGDRVSVTCKASQNVVTNVAWYQQKPGQSPKALIYSASYRYSGVPDRFTGSGSGTDFTLTISNVQSEDLAEYFCQQYNSYPLTFGAGTKLELK
B2: Nectin-4 3C12H/3C12L (recombinant chimeric antibody) (antibody, V domains shown)
VH: B1 VH with S30T, S56N, T68S, I78V, M99T, S100H
VL: B1 VL with S14T, V21I, N32A, A46L, Y53N, S56T, N77Y, V78M, E85D, N92S
B3: Nectin-4 12E11H/12E11L (recombinant chimeric antibody) (antibody, V domains shown)
VH: B1 VH with S30T, Y59C, A61G, T68S, S70I, I78V, M99T, S100H
VL: B1 VL with S14T, V21I, V30N, N32A, A46L, S56T, V78M, E85D, N92S, S93N
notes: also called parental 12E11 clone
B4: Nectin-4 7 E8H/7 E8L (recombinant chimeric antibody) (antibody, V domains shown)
VH: B1 VH with S30A, T68S, I78V, M98N, M99S, S100H
VL: B1 VL with N77H, Q89H, S93N, L96Y, A100G, L106I
B5: Nectin-4 5D9H/5D9L (recombinant chimeric antibody) (antibody, V domains shown)
VH: QVQLKQSGPGLVQPSQSLSITCTVSGFSLTNYGVHWVRQSPGKGLEWLGVIWSGGSTDYNAAFVSRLSISRDNSKSQVFFKMNSLQADDTAIYYCARSGKWYYFDYWGQGTTLTVSS
VL: DIQMTQSPASLSVSVGETVTITCRASENIYSNLAWYQQKQGKSPQLLVYAATNLADGVPSRFSGSGSGTQYSLKINSLQSEDFGSYYCQHFWGTPTFGGGTKLEIK
notes: also called Nectin-4 5D9 chimeric mAb
B6: Enfortumab (antibody, V domains shown)
VH: EVQLVESGGGLVQPGGSLRLSCAASGFTFSSYNMNWVRQAPGKGLEWVSYISSSSSTIYYADSVKGRFTISRDNAKNSLSLQMNSLRDEDTAVYYCARAYYYGMDVWGQGTTVTVSS
VL: DIQMTQSPSSVSASVGDRVTITCRASQGISGWLAWYQQKPGKAPKFLIYAASTLQSGVPSRFSGSGSGTDFTLTISSLQPEDFATYYCQQANSFPPTFGGGTKVEIKR

Biological target: T1, cynomolgus monkey nectin-4 protein …
Experiment: flow cytometry, HEK 293 cells overexpressing the target
Protocol: (§1) Human embryonic kidney (HEK) 293 cells overexpressing human, cynomolgus monkey, rat, or mouse nectin-4 protein were produced. Cells were lifted with Versene to preserve cell surface proteins and were resuspended at 10e6/mL in PBS+2% FBS. 100 μl was added to a flow tube to test […]. Primary antibodies were diluted to […] and 10 μL was added for a total of 1 μg/test. Primary antibodies (or ADCs) were incubated with cells for 1 h on ice. Then, cells were washed 1× in 2 mL PBS+2% FBS and secondary antibody was added for detection. AF488-conjugated anti-human antibody from Jackson Immunoresearch, diluted according to the manufacturer's instructions+50% glycerol, was used at 1 μL/test-diluted to ⅕ the concentration in PBS+2% FBS and 5 μL were added per tube. The secondary reagent was incubated with the cells for 30 min, then cells were washed 2× in PBS+2% FBS and analyzed by flow cytometry on a BD FacsCanto instrument equipped with FACSDiva software.
(§2) Lead clones were tested for binding to human, cynomolgus monkey, rat, or mouse nectin-4 protein expressed on the surface of HEK 293 cells. Enfortumab was included as a positive control and an anti-FITC reactive antibody was included as a negative control.

| Binder | Flow data |
| --- | --- |
| B1 | 11400 |
| B2 | 10600 |
| B3 | 10400 |
| B4 | 10400 |
| B5 | 12600 |
| B6 | 20000 |

Biological target: T2, human nectin-4 protein expressed on the …
Experiment: as above
Protocol: as §1, §2

| Binder | Flow data |
| --- | --- |
| B1 | 10200 |
| B2 | 8370 |
| B3 | 8620 |
| B4 | 9200 |
| B5 | 11200 |

Biological target: T3, mouse nectin-4 protein expressed on the …
Experiment: as above
Protocol: as §1, §2

| Binder | Flow data |
| --- | --- |
| B1 | 194 |
| B2 | 328 |
| B3 | 230 |
| B4 | 279 |
| B5 | 189 |
| B6 | 3220 |

Biological target: T6, human nectin-4 protein expressed on the surface of cells (human, UniProt Q96NY8 32-510)
Experiment: as above
Protocol: as §1, §2

| Binder | Flow data |
| --- | --- |
| B6 | 17100 |

Biological target: T4, rat nectin-4 protein expressed on the …
Experiment: as above
Protocol: as §1, §2

| Binder | Flow data |
| --- | --- |
| B1 | 8920 |
| B2 | 5060 |
| B3 | 1900 |
| B4 | 5970 |
| B5 | 2140 |
| B6 | 45500 |

Biological target: T5, recombinant human Nectin-4-His protein
Experiment: ELISA, recombinant antibody on coated antigen

| Binder | EC50 |
| --- | --- |
| B1 | 0.239 nM |
| B2 | 0.282 nM |
| B3 | 0.252 nM |
| B4 | 0.361 nM |
| B5 | 0.192 nM |

Biological target: T5, recombinant human Nectin-4-His protein
Experiment: ELISA, coated antigen

| Binder | EC50 |
| --- | --- |
| B5 | 0.191 nM |

Biological target: T2, human nectin-4 protein expressed on the …
Experiment: cell-based or functional assay

| Binder | Cell kill IC50, HekNectin4 | Cell kill IC50, MDA-MB468 | Cell kill IC50, SKBR3 |
| --- | --- | --- | --- |
| B5 | 0.207 nM | 1.31 nM | 8.47 nM |

Biological target: T2, human nectin-4 protein expressed on the …
Experiment: cell-based or functional assay
Remark: another data set of the same source

| Binder | IC50, in vitro potency, HEK Cells + Nectin-4 |
| --- | --- |
| B1 | 0.573 nM |
| B2 | 0.919 nM |
| B3 | 0.987 nM |
| B4 | 0.89 nM |
| B5 | 0.446 nM |

Biological target: T6, human nectin-4 protein expressed on the …
Experiment: cell-based or functional assay

| Binder | IC50, in vitro potency, HEK Cells + Nectin-4 |
| --- | --- |
| B6 | 0.685 nM |
